Patent US20240270846A1 (published 2024)

B1: CE115HA000/GLS3000 F55V one-arm antibody (antibody, human IgG1, kappa, L234A L235A, N297A, name in Kabat numbering)
heavy: QVQLVESGGGVVQPGRSLRLSCAASGFTFSNAWMHWVRQAPGKGLEWVAQIKAKSNNYATYYAESVKGRFTISRDDSKNSLYLQMNSLKTEDTAVYYCRYVHYGAYYGVDAWGQGTTVTVSSASTKGPSVFPLAPSSKSTSGGTAALGCLVKDYFPEPVTVSWNSGALTSGVHTFPAVLQSSGLYSLSSVVTVPSSSLGTQTYICNVNHKPSNTKVDKKVEPKSCDKTHTCPPCPAPEAAGGPSVFLFPPKPKDTLMISRTPEVTCVVVDVSHEDPEVKFNWYVDGVEVHNAKTKPREEQYASTYRVVSVLTVLHQDWLNGKEYKCKVSNKALPAPIEKTISKAKGQPREPQVYTLPPSRCELTKNQVSLSCAVKGFYPSDIAVEWESNGQPENNYKTTPPVLDSDGSFFLVSKLTVDKSRWQQGNVFSCSVMHEALHNHYTQKSLSLSPDYKDDDDK
chain: EPKSSDKTHTCPPCPAPELLGGPSVFLFPPKPKDTLMISRTPEVTCVVVDVSHEDPEVKFNWYVDGVEVHNAKTKPREEQYNSTYRVVSVLTVLHQDWLNGKEYKCKVSNKALPAPIEKTISKAKGQPREPQVCTLPPSRDELTKNQVSLWCLVKGFYPSDIAVEWESNGQPENNYKTTPPVLDSDGSFFLYSKLTVDKSRWQQGNVFSCSVMHEALHNRYTQKSLSLSP
light: DIVMTQSPLSLPVTPGEPASISCRSSQSLVHSNRNTYLHWYQQKPGQAPRLLIYKVSNRVSGVPDRFSGSGSGTDFTLKISRVEAEDVGVYYCGQGTQVPYTFGQGTKLEIKRTVAAPSVFIFPPSDEQLKSGTASVVCLLNNFYPREAKVQWKVDNALQSGNSQESVTEQDSKDSTYSLSSTLTLSKADYEKHKVYACEVTHQGLSSPVTKSFNRGEC
notes: one-arm IgG1
B2: CE115HA000/GLS3000 G89E one-arm antibody (antibody, human IgG1, kappa, L234A L235A, N297A, name in Kabat numbering)
heavy: QVQLVESGGGVVQPGRSLRLSCAASGFTFSNAWMHWVRQAPGKGLEWVAQIKAKSNNYATYYAESVKGRFTISRDDSKNSLYLQMNSLKTEDTAVYYCRYVHYGAYYGVDAWGQGTTVTVSSASTKGPSVFPLAPSSKSTSGGTAALGCLVKDYFPEPVTVSWNSGALTSGVHTFPAVLQSSGLYSLSSVVTVPSSSLGTQTYICNVNHKPSNTKVDKKVEPKSCDKTHTCPPCPAPEAAGGPSVFLFPPKPKDTLMISRTPEVTCVVVDVSHEDPEVKFNWYVDGVEVHNAKTKPREEQYASTYRVVSVLTVLHQDWLNGKEYKCKVSNKALPAPIEKTISKAKGQPREPQVYTLPPSRCELTKNQVSLSCAVKGFYPSDIAVEWESNGQPENNYKTTPPVLDSDGSFFLVSKLTVDKSRWQQGNVFSCSVMHEALHNHYTQKSLSLSPDYKDDDDK
chain: EPKSSDKTHTCPPCPAPELLGGPSVFLFPPKPKDTLMISRTPEVTCVVVDVSHEDPEVKFNWYVDGVEVHNAKTKPREEQYNSTYRVVSVLTVLHQDWLNGKEYKCKVSNKALPAPIEKTISKAKGQPREPQVCTLPPSRDELTKNQVSLWCLVKGFYPSDIAVEWESNGQPENNYKTTPPVLDSDGSFFLYSKLTVDKSRWQQGNVFSCSVMHEALHNRYTQKSLSLSP
light: DIVMTQSPLSLPVTPGEPASISCRSSQSLVHSNRNTYLHWYQQKPGQAPRLLIYKVSNRFSGVPDRFSGSGSGTDFTLKISRVEAEDVGVYYCEQGTQVPYTFGQGTKLEIKRTVAAPSVFIFPPSDEQLKSGTASVVCLLNNFYPREAKVQWKVDNALQSGNSQESVTEQDSKDSTYSLSSTLTLSKADYEKHKVYACEVTHQGLSSPVTKSFNRGEC
notes: one-arm IgG1
B3: CE115HA000/GLS3000 F55Y one-arm antibody (antibody, human IgG1, kappa, L234A L235A, N297A, name in Kabat numbering)
heavy: QVQLVESGGGVVQPGRSLRLSCAASGFTFSNAWMHWVRQAPGKGLEWVAQIKAKSNNYATYYAESVKGRFTISRDDSKNSLYLQMNSLKTEDTAVYYCRYVHYGAYYGVDAWGQGTTVTVSSASTKGPSVFPLAPSSKSTSGGTAALGCLVKDYFPEPVTVSWNSGALTSGVHTFPAVLQSSGLYSLSSVVTVPSSSLGTQTYICNVNHKPSNTKVDKKVEPKSCDKTHTCPPCPAPEAAGGPSVFLFPPKPKDTLMISRTPEVTCVVVDVSHEDPEVKFNWYVDGVEVHNAKTKPREEQYASTYRVVSVLTVLHQDWLNGKEYKCKVSNKALPAPIEKTISKAKGQPREPQVYTLPPSRCELTKNQVSLSCAVKGFYPSDIAVEWESNGQPENNYKTTPPVLDSDGSFFLVSKLTVDKSRWQQGNVFSCSVMHEALHNHYTQKSLSLSPDYKDDDDK
chain: EPKSSDKTHTCPPCPAPELLGGPSVFLFPPKPKDTLMISRTPEVTCVVVDVSHEDPEVKFNWYVDGVEVHNAKTKPREEQYNSTYRVVSVLTVLHQDWLNGKEYKCKVSNKALPAPIEKTISKAKGQPREPQVCTLPPSRDELTKNQVSLWCLVKGFYPSDIAVEWESNGQPENNYKTTPPVLDSDGSFFLYSKLTVDKSRWQQGNVFSCSVMHEALHNRYTQKSLSLSP
light: DIVMTQSPLSLPVTPGEPASISCRSSQSLVHSNRNTYLHWYQQKPGQAPRLLIYKVSNRYSGVPDRFSGSGSGTDFTLKISRVEAEDVGVYYCGQGTQVPYTFGQGTKLEIKRTVAAPSVFIFPPSDEQLKSGTASVVCLLNNFYPREAKVQWKVDNALQSGNSQESVTEQDSKDSTYSLSSTLTLSKADYEKHKVYACEVTHQGLSSPVTKSFNRGEC
notes: one-arm IgG1
B4: CE115HA000/GLS3000 F55W one-arm antibody (antibody, human IgG1, kappa, L234A L235A, N297A, name in Kabat numbering)
heavy: QVQLVESGGGVVQPGRSLRLSCAASGFTFSNAWMHWVRQAPGKGLEWVAQIKAKSNNYATYYAESVKGRFTISRDDSKNSLYLQMNSLKTEDTAVYYCRYVHYGAYYGVDAWGQGTTVTVSSASTKGPSVFPLAPSSKSTSGGTAALGCLVKDYFPEPVTVSWNSGALTSGVHTFPAVLQSSGLYSLSSVVTVPSSSLGTQTYICNVNHKPSNTKVDKKVEPKSCDKTHTCPPCPAPEAAGGPSVFLFPPKPKDTLMISRTPEVTCVVVDVSHEDPEVKFNWYVDGVEVHNAKTKPREEQYASTYRVVSVLTVLHQDWLNGKEYKCKVSNKALPAPIEKTISKAKGQPREPQVYTLPPSRCELTKNQVSLSCAVKGFYPSDIAVEWESNGQPENNYKTTPPVLDSDGSFFLVSKLTVDKSRWQQGNVFSCSVMHEALHNHYTQKSLSLSPDYKDDDDK
chain: EPKSSDKTHTCPPCPAPELLGGPSVFLFPPKPKDTLMISRTPEVTCVVVDVSHEDPEVKFNWYVDGVEVHNAKTKPREEQYNSTYRVVSVLTVLHQDWLNGKEYKCKVSNKALPAPIEKTISKAKGQPREPQVCTLPPSRDELTKNQVSLWCLVKGFYPSDIAVEWESNGQPENNYKTTPPVLDSDGSFFLYSKLTVDKSRWQQGNVFSCSVMHEALHNRYTQKSLSLSP
light: DIVMTQSPLSLPVTPGEPASISCRSSQSLVHSNRNTYLHWYQQKPGQAPRLLIYKVSNRWSGVPDRFSGSGSGTDFTLKISRVEAEDVGVYYCGQGTQVPYTFGQGTKLEIKRTVAAPSVFIFPPSDEQLKSGTASVVCLLNNFYPREAKVQWKVDNALQSGNSQESVTEQDSKDSTYSLSSTLTLSKADYEKHKVYACEVTHQGLSSPVTKSFNRGEC
notes: one-arm IgG1
B5: CE115HA000/GLS3000 G89D one-arm antibody (antibody, human IgG1, kappa, L234A L235A, N297A, name in Kabat numbering)
heavy: QVQLVESGGGVVQPGRSLRLSCAASGFTFSNAWMHWVRQAPGKGLEWVAQIKAKSNNYATYYAESVKGRFTISRDDSKNSLYLQMNSLKTEDTAVYYCRYVHYGAYYGVDAWGQGTTVTVSSASTKGPSVFPLAPSSKSTSGGTAALGCLVKDYFPEPVTVSWNSGALTSGVHTFPAVLQSSGLYSLSSVVTVPSSSLGTQTYICNVNHKPSNTKVDKKVEPKSCDKTHTCPPCPAPEAAGGPSVFLFPPKPKDTLMISRTPEVTCVVVDVSHEDPEVKFNWYVDGVEVHNAKTKPREEQYASTYRVVSVLTVLHQDWLNGKEYKCKVSNKALPAPIEKTISKAKGQPREPQVYTLPPSRCELTKNQVSLSCAVKGFYPSDIAVEWESNGQPENNYKTTPPVLDSDGSFFLVSKLTVDKSRWQQGNVFSCSVMHEALHNHYTQKSLSLSPDYKDDDDK
chain: EPKSSDKTHTCPPCPAPELLGGPSVFLFPPKPKDTLMISRTPEVTCVVVDVSHEDPEVKFNWYVDGVEVHNAKTKPREEQYNSTYRVVSVLTVLHQDWLNGKEYKCKVSNKALPAPIEKTISKAKGQPREPQVCTLPPSRDELTKNQVSLWCLVKGFYPSDIAVEWESNGQPENNYKTTPPVLDSDGSFFLYSKLTVDKSRWQQGNVFSCSVMHEALHNRYTQKSLSLSP
light: DIVMTQSPLSLPVTPGEPASISCRSSQSLVHSNRNTYLHWYQQKPGQAPRLLIYKVSNRFSGVPDRFSGSGSGTDFTLKISRVEAEDVGVYYCDQGTQVPYTFGQGTKLEIKRTVAAPSVFIFPPSDEQLKSGTASVVCLLNNFYPREAKVQWKVDNALQSGNSQESVTEQDSKDSTYSLSSTLTLSKADYEKHKVYACEVTHQGLSSPVTKSFNRGEC
notes: one-arm IgG1
B6: CE115HA000/GLS3000 G89A one-arm antibody (antibody, human IgG1, kappa, L234A L235A, N297A, name in Kabat numbering)
heavy: QVQLVESGGGVVQPGRSLRLSCAASGFTFSNAWMHWVRQAPGKGLEWVAQIKAKSNNYATYYAESVKGRFTISRDDSKNSLYLQMNSLKTEDTAVYYCRYVHYGAYYGVDAWGQGTTVTVSSASTKGPSVFPLAPSSKSTSGGTAALGCLVKDYFPEPVTVSWNSGALTSGVHTFPAVLQSSGLYSLSSVVTVPSSSLGTQTYICNVNHKPSNTKVDKKVEPKSCDKTHTCPPCPAPEAAGGPSVFLFPPKPKDTLMISRTPEVTCVVVDVSHEDPEVKFNWYVDGVEVHNAKTKPREEQYASTYRVVSVLTVLHQDWLNGKEYKCKVSNKALPAPIEKTISKAKGQPREPQVYTLPPSRCELTKNQVSLSCAVKGFYPSDIAVEWESNGQPENNYKTTPPVLDSDGSFFLVSKLTVDKSRWQQGNVFSCSVMHEALHNHYTQKSLSLSPDYKDDDDK
chain: EPKSSDKTHTCPPCPAPELLGGPSVFLFPPKPKDTLMISRTPEVTCVVVDVSHEDPEVKFNWYVDGVEVHNAKTKPREEQYNSTYRVVSVLTVLHQDWLNGKEYKCKVSNKALPAPIEKTISKAKGQPREPQVCTLPPSRDELTKNQVSLWCLVKGFYPSDIAVEWESNGQPENNYKTTPPVLDSDGSFFLYSKLTVDKSRWQQGNVFSCSVMHEALHNRYTQKSLSLSP
light: DIVMTQSPLSLPVTPGEPASISCRSSQSLVHSNRNTYLHWYQQKPGQAPRLLIYKVSNRFSGVPDRFSGSGSGTDFTLKISRVEAEDVGVYYCAQGTQVPYTFGQGTKLEIKRTVAAPSVFIFPPSDEQLKSGTASVVCLLNNFYPREAKVQWKVDNALQSGNSQESVTEQDSKDSTYSLSSTLTLSKADYEKHKVYACEVTHQGLSSPVTKSFNRGEC
notes: one-arm IgG1

These binders were tested against T1, CD3 epsilon homodimer protein (UniProt P07766 23-126) (assay: SPR (Biacore T200), CD3e homodimer on CM4 chip, antibody as analyte; KD ratio vs unaltered GLS3000;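 note: CD3 epsilon homodimer amine-coupled to the sensor surface, antibodies injected as analyte at 25 °C with HBS-EP+ running buffer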).
T1 construct: also called CD3 (CD3 epsilon)
T1 sequence (P07766 23-126): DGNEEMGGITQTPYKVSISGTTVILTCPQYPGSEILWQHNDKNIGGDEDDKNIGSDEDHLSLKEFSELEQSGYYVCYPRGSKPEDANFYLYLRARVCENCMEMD
B1 was tested, and the “KD ratio to GLS3000” value was 1.12 ratio. B2 was tested, and the “KD ratio to GLS3000” value was 34.6 ratio. B3 was tested, and the “KD ratio to GLS3000” value was 1.13 ratio. With B4 the “KD ratio to GLS3000” value was 1.72 ratio. B5 was tested, and the “KD ratio to GLS3000” value was 1.96 ratio. For B6, the “KD ratio to GLS3000” value was 1.1 ratio.
